Reference: the supplement of paper PMC7877785
± gives the uncertainty stated by the source.

Experiment: self-splicing fitness, log relative to wild type (ln ratio); higher = more splicing; Tetrahymena group I intron in knt gene, E. coli kanamycin selection, DiMSum; sequences stand for … in CUCUCU…GGAGGGAAAAGUUAUCAGGCAUGCACCUGGUAGCUAGUCUUUAAACCAAUAGAUUGCAUCGGUUUAAAAGGCAAGACCGUCAAAUUGCGGGAAAGGGGUCAACAGCCGUUCAGUACCAAGUCUCAGGGGAAACUUUGAGAUGGCCUUGCAAAGGGUAUGGUAAUAAGCUGACGGACAUGGUCCUAACCACGCAGCCAAGUCCUAAGUCAACAGAUCUUCUGUUGAUAUGGAUGCAGUUCACAGACUAAAUGUCGGUCGGGGAAGAUGUAUUCUUCUCAUAAGAUAUAGUCGGACCUCUCCUUAAUGGGAGCUAGCGGAUGAAGUGAUGCAACACUGGAGCCGCUGGGAACUAAUUUGUAUGCGAAAGUAUAUUGAUUAGUUUUGGAGUACUCGUGGUCG
Procedure, shortened: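 A randomised library covering all eight P1ex-region intron nucleotides was built with the intron in the knt kanamycin-resistance gene on pET-22b(+) and held in E. coli BL21(DE3). Cells were grown overnight at 37°C or 30°C on LB agar, with or without 25 μg/mL kanamycin, plus 100 μg/mL carbenicillin, 50 μM IPTG and 0.2% rhamnose, and pooled colonies were amplicon-sequenced on an Illumina HiSeq 2500. DiMSum fitness is the error-weighted combination of wild-type-normalised replicate fold changes, kanamycin versus none.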

Sequence	self-splicing fitness (ln) (30 °C)	self-splicing fitness (ln) (37 °C)
GCACAGCAAUAUUACGCGGA	-1.51 ± 0.14	-0.87 ± 0.12
GCGAAGCAAUAUUACGGGGA	-3.69 ± 0.23	-3.12 ± 0.33
UAAGAGCAAUAUUACGUAGU	-3.21 ± 0.19	-2.32 ± 0.26
UAUCAGCAAUAUUACGCACU	-0.0365 ± 0.087	0.104 ± 0.094
AGCCAGCAAUAUUACGGGUG	-2.15 ± 0.075	-0.713 ± 0.085
CGAAAGCAAUAUUACGUUAG	-0.97 ± 0.068	-0.895 ± 0.082
GGUUAGCAAUAUUACGGACA	-0.743 ± 0.12	0.373 ± 0.15
UCUAAGCAAUAUUACGCUGG	-2.53 ± 0.12	-2.92 ± 0.24
GCUCAGCAAUAUUACGGCAC	-1.11 ± 0.21	-0.084 ± 0.21
AUAUAGCAAUAUUACGGCUC	-0.0589 ± 0.13	-0.144 ± 0.16
AAUCAGCAAUAUUACGCCUA	-0.0982 ± 0.08	0.103 ± 0.09
CCGCAGCAAUAUUACGGAGU	-4.11 ± 0.21	-3.01 ± 0.23
CAUUAGCAAUAUUACGCUAU	-3.47 ± 0.3	-2.99 ± 0.28
CAAGAGCAAUAUUACGCUUG		-2.99 ± 0.47
AAACAGCAAUAUUACGGUGG	-2.61 ± 0.096	-1.93 ± 0.12
CGAAAGCAAUAUUACGCAAA	-2.59 ± 0.26	-2.35 ± 0.32
GCGAAGCAAUAUUACGGCGA	-0.0437 ± 0.14	0.0298 ± 0.15
UACGAGCAAUAUUACGUUAC	-2.96 ± 0.42	
UCUUAGCAAUAUUACGAUUU	-3.07 ± 0.18	-1.09 ± 0.13
CGGCAGCAAUAUUACGUUCG		-1.23 ± 0.16
AGAUAGCAAUAUUACGCGGC	-3.16 ± 0.22	-3.59 ± 0.42
UUUCAGCAAUAUUACGUCGU	-3.77 ± 0.17	-1.93 ± 0.11
GGACAGCAAUAUUACGGUAG	-1.7 ± 0.061	-1.32 ± 0.073
UUCUAGCAAUAUUACGAGGA	-2.56 ± 0.25	-1.4 ± 0.25
UCAUAGCAAUAUUACGGGAG	-3.39 ± 0.26	-3.06 ± 0.29

Sequence	self-splicing fitness (ln) (30 °C)	self-splicing fitness (ln) (37 °C)
GCCGAGCAAUAUUACGCAUC	-2.54 ± 0.24	-1.48 ± 0.28
AUGCAGCAAUAUUACGGCUG	-2.78 ± 0.15	-1.68 ± 0.23
CUCCAGCAAUAUUACGGCGG	-4.65 ± 0.28	-3.1 ± 0.22
AAUGAGCAAUAUUACGGUCU	-1.96 ± 0.13	-0.956 ± 0.13
UGGCAGCAAUAUUACGCAUU	-1.05 ± 0.097	-0.267 ± 0.089
UACGAGCAAUAUUACGAGGU	-3.41 ± 0.19	-3.16 ± 0.17
GAGUAGCAAUAUUACGUUCG	-2.12 ± 0.15	-0.913 ± 0.15
CAGGAGCAAUAUUACGCUUA	-2.86 ± 0.21	-2.02 ± 0.21
GCUGAGCAAUAUUACGCGAC	-3.36 ± 0.32	-1 ± 0.3
GCGAAGCAAUAUUACGAAGC	-2.71 ± 0.39	-2.49 ± 0.36
ACGUAGCAAUAUUACGAAGC		-1.96 ± 0.41
ACCUAGCAAUAUUACGGUGA	-1.86 ± 0.079	-0.814 ± 0.074
UAUCAGCAAUAUUACGGUUG	-0.952 ± 0.068	-0.113 ± 0.1
CCACAGCAAUAUUACGUGAC	-3.38 ± 0.16	-2.01 ± 0.13
UGUUAGCAAUAUUACGGGGG	-3.91 ± 0.35	-1.94 ± 0.36
CUAGAGCAAUAUUACGGUCA	-3.55 ± 0.23	-2.47 ± 0.44
AUUUAGCAAUAUUACGCAGA	-2.07 ± 0.3	-1.07 ± 0.19
GGGGAGCAAUAUUACGGUGA	-2.23 ± 0.36	
UUACAGCAAUAUUACGCGAA	-1.02 ± 0.12	-0.94 ± 0.11
AGACAGCAAUAUUACGUCUG	-1.6 ± 0.076	-0.662 ± 0.08
CGCUAGCAAUAUUACGUCGC	-2.3 ± 0.33	
UAAAAGCAAUAUUACGCGAU	-3.3 ± 0.17	-2.51 ± 0.2
GUUUAGCAAUAUUACGGAUA	-2.77 ± 0.27	-1.37 ± 0.19
GACCAGCAAUAUUACGCAUG	-1.2 ± 0.073	-1.65 ± 0.09
GUAAAGCAAUAUUACGGGUA	-1.02 ± 0.078	-0.464 ± 0.085

Sequence	self-splicing fitness (ln) (30 °C)	self-splicing fitness (ln) (37 °C)
CGGGAGCAAUAUUACGACGU	-3.47 ± 0.33	-1.16 ± 0.18
CCCGAGCAAUAUUACGUCUG	-3.73 ± 0.29	-2.32 ± 0.26
UAUGAGCAAUAUUACGGUGA	-2.21 ± 0.16	-3.36 ± 0.27
CGCAAGCAAUAUUACGACAC	-2.89 ± 0.29	-0.474 ± 0.22
AUCAAGCAAUAUUACGAAGU	-2.52 ± 0.11	-1.22 ± 0.12
AAGCAGCAAUAUUACGGCGU	-0.0119 ± 0.067	0.201 ± 0.079
CGGAAGCAAUAUUACGAGGU	-4.22 ± 0.39	-2.42 ± 0.35
UGCUAGCAAUAUUACGCGAC	-2.66 ± 0.26	-1.58 ± 0.3
CGCUAGCAAUAUUACGACCG	-1.12 ± 0.11	-0.347 ± 0.15
UUCCAGCAAUAUUACGGUUU	-0.65 ± 0.064	-0.427 ± 0.063
AACCAGCAAUAUUACGCGCU	-2.01 ± 0.13	-0.894 ± 0.13
UAGAAGCAAUAUUACGCAAG	-2.33 ± 0.2	-0.64 ± 0.17
UGACAGCAAUAUUACGGUCA	-2.97 ± 0.28	-0.408 ± 0.17
AUGAAGCAAUAUUACGGCUU	-4.22 ± 0.24	-3.03 ± 0.21
CGAGAGCAAUAUUACGGAGA	-2.61 ± 0.26	
AGACAGCAAUAUUACGUCAG	-2.3 ± 0.092	-0.807 ± 0.11
UGAAAGCAAUAUUACGUUUU	-3.67 ± 0.18	-3.41 ± 0.35
AGAGAGCAAUAUUACGCACA	-3.27 ± 0.48	
UCGAAGCAAUAUUACGCCCA	-1.84 ± 0.32	-0.793 ± 0.25
GGUCAGCAAUAUUACGUAGA	-0.689 ± 0.081	-0.164 ± 0.096
CAGGAGCAAUAUUACGGUGG	-1.91 ± 0.14	0.146 ± 0.1
GCGGAGCAAUAUUACGCGCG	-2.77 ± 0.34	-2.83 ± 0.27
UAGGAGCAAUAUUACGGGCA	-2.72 ± 0.26	-2.63 ± 0.39
GGAGAGCAAUAUUACGGAUC	-1.91 ± 0.12	-0.404 ± 0.14
UGCCAGCAAUAUUACGCAGU	-4.11 ± 0.24	-2.41 ± 0.2

Sequence	self-splicing fitness (ln) (30 °C)	self-splicing fitness (ln) (37 °C)
AGCAAGCAAUAUUACGCAAA	-3.11 ± 0.27	-2.23 ± 0.24
UCGUAGCAAUAUUACGCUUU	-2.74 ± 0.14	-2.4 ± 0.15
CUCCAGCAAUAUUACGGUUC	-2.51 ± 0.17	-3.19 ± 0.35
AUAGAGCAAUAUUACGGAAA	-2.73 ± 0.22	-2.19 ± 0.38
CUCAAGCAAUAUUACGCGCG	-3.19 ± 0.18	-2.41 ± 0.29
AUGAAGCAAUAUUACGGAUA	-0.747 ± 0.088	-0.113 ± 0.11
AAUGAGCAAUAUUACGGAAU	-4.25 ± 0.37	-2.34 ± 0.32
CUUAAGCAAUAUUACGAGAC		-3.26 ± 0.43
UCGCAGCAAUAUUACGGAAG	-2.74 ± 0.25	-1.74 ± 0.22
UAUUAGCAAUAUUACGUCCC	-2.83 ± 0.42	-0.713 ± 0.46
UGUCAGCAAUAUUACGUGAC	-2.8 ± 0.21	-2.81 ± 0.26
AUAAAGCAAUAUUACGGGAG	-1.52 ± 0.11	-1.23 ± 0.14
CGCCAGCAAUAUUACGAGCU	-3.06 ± 0.097	-1.59 ± 0.094
UACGAGCAAUAUUACGGAUG	-2.95 ± 0.43	-1.27 ± 0.34
GAGUAGCAAUAUUACGAUCU	-1.59 ± 0.18	-0.479 ± 0.16
GACGAGCAAUAUUACGAUAU	-3.83 ± 0.33	-2.15 ± 0.32
GAUAAGCAAUAUUACGCAUU	-2.5 ± 0.32	-2.26 ± 0.35
CCAGAGCAAUAUUACGUGAA	-3.7 ± 0.16	-2.32 ± 0.18
GGGCAGCAAUAUUACGGUGG	-3.42 ± 0.17	-1.86 ± 0.16
AUACAGCAAUAUUACGGUAG	-1.54 ± 0.075	-0.891 ± 0.087
CCAGAGCAAUAUUACGAGAG	-2.95 ± 0.21	-1.39 ± 0.23
AUCGAGCAAUAUUACGGCGC	-1.38 ± 0.091	-0.856 ± 0.13
ACUAAGCAAUAUUACGGCCA	-0.942 ± 0.13	0.00289 ± 0.13
